Source: patent publication US20220073618A1

How the values were obtained:
[1] = target: biotin-labeled PD-L1-Fc (human) (UniProt Q9NZQ7); assay: ELISA: biotin-PD-L1-Fc binding to coated human PD-1 with titrated antibody; negative control
[2] = target: monkey PD-L1 on cell surface (monkey); assay: flow cytometry on CHO cells expressing monkey PD-L1, fitted curve, negative control
[3] = target: biotin-labeled PD-L1-Fc (human) (UniProt Q9NZQ7); assay: ELISA: biotin-PD-L1-Fc binding to coated human PD-1 with titrated antibody, OD 450 nm, fitted curve; negative control
[4] = target: human PD-L1 on cell surface (human) (UniProt Q9NZQ7); assay: flow cytometry on CHO cells expressing human PD-L1, fitted curve, negative control
[5] = target: biotin-labeled PD-L1-Fc (human) (UniProt Q9NZQ7); assay: flow cytometry: biotin-PD-L1-Fc binding to CHO cells expressing human PD-1 with titrated antibody, fitted curve; negative control

Chain of human PD-L1 on cell surface (human) (Q9NZQ7 19-290): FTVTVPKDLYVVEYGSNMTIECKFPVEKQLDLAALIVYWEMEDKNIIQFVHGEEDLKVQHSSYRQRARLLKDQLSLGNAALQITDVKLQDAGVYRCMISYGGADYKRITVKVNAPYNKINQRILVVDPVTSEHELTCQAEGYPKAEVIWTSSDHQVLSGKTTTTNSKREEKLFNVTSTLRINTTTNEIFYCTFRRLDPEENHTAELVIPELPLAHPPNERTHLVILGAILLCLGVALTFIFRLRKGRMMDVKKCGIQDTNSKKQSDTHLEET
Chain of biotin-labeled PD-L1-Fc (human) (Q9NZQ7 19-238 limits assumed): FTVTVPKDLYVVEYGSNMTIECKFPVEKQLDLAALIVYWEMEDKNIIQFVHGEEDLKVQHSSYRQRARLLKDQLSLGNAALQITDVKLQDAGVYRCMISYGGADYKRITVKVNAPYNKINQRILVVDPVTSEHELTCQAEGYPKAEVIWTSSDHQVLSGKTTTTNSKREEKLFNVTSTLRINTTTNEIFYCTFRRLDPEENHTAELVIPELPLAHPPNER

EC50 [1]: 2.88 mg/L
Bottom [2]: 216
EC50 [2]: 19.3 nM
LogEC50 [2]: 1.29
Span [2]: 32
Top [2]: 248
Bottom [3]: 1.75
LogEC50 [3]: 3.46
Span [3]: 0.186
Top [3]: 1.94
Bottom [4]: 166
EC50 [4]: 0.015 nM
LogEC50 [4]: -1.82
Span [4]: 24.7
Top [4]: 191
Bottom [5]: 5880
LogEC50 [5]: -17.5
Span [5]: 1.15e+06
Top [5]: 1.16e+06
Substance: negative control antibody human IgG
